# Results reported in publication PMC2577774 (Journal of molecular biology, 2008).
# Target: the molecule itself
# Experiment: native MS
protein,measurement,value
"gp3(Δ1–152), C-terminal truncate of P22 terminase small subunit gp3 lacking ten amino acids (domain or fragment, bacteriophage P22, UniProt P04893 1-152, looked up) MAAPKGNRFWEARSSHGRNPKFESPEALWAACCEYFEWVEANPLWEMKAFSYQGEVIQEPIAKMRAMTITGLTLFIDVTLETWRTYRLREDLSEVVTRAEQVIYDQKFSGAAADLLNANIIARDLGLKEQSQVEDVTPDKGDRDKRRSRIKE",stoichiometry N,9
